Measurements from the supplement of paper PMC9170038.

Tested on: MS2 coat protein
Assay: apparent KD of MS2 coat protein; higher = weaker reporter binding
Details: Eterna round: R107
Description: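 RNA-MaP round R107: designed RNA switches with theophylline, tryptophan, arginine or FMN aptamers are transcribed on-chip within common flanks. They are titrated with SNAP-549-labelled MS2 coat protein in RNA-MaP buffer (100 mM Tris pH 7.5, 80 mM KCl, 4 mM MgCl2), without ligand or with the indicated ligand. Median apparent KD per design.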

[1] = input ligand: theophylline 20 uM
[2] = input ligand: tryptophan 2.4 mM
[3] = input ligand: theophylline 2 mM

“AACAUGAGGAUCACCCAUGUUUUAUGGGAUACCAGAGACGAAAGUCUCCCUUGGCAGCCCAAGCUGCUCCAUACGAAAGUAUGGU [Theophylline A 17]” was tested, and the “apparent KD of MS2 coat protein” value (input ligand: arginine 13.2 mM) was 16 nM, the “apparent KD of MS2 coat protein” value [1] was 18.2 nM and the “apparent KD of MS2 coat protein” value [2] was 16.6 nM.
With “AACAUGUGGAUCACCCAUGUAUGUUCUGAAGGAGCGCCACAUGAGGCAGGUAGGUCGCAGGUACAUGAGGAUCACCCAUGUGUCA [Exclusion Arginine A 4]” the “apparent KD of MS2 coat protein” value (input ligand: arginine 13.2 mM) was 54.5 nM, the “apparent KD of MS2 coat protein” value (input ligand: none) was 192 nM and the “apparent KD of MS2 coat protein” value [1] was 111 nM. The “apparent KD of MS2 coat protein” value [3] was 193 nM and the “apparent KD of MS2 coat protein” value [2] was 158 nM.
For “AACCGAGGCUAUCCUCUAAGAAAAUGUGAUACCAGAAUAAUUUUAUUCCCUUGGCAGCAUGACAUGAGGAUCACCCAUGUGUCUU [SSTheo A #6]”, the “apparent KD of MS2 coat protein” value (input ligand: arginine 13.2 mM) was 73.6 nM, the “apparent KD of MS2 coat protein” value [1] was 131 nM and the “apparent KD of MS2 coat protein” value [2] was 138 nM.
“AACCGAGGCUAUCCUCUAAGACUAUGUGAUACCAGAAUAAUUUUAUUCCCUUGGCAGCAUGACAUGAGGAUCACCCAUGUCUCUU [SSTheo A #8]” was tested, and the “apparent KD of MS2 coat protein” value (input ligand: arginine 13.2 mM) was 21 nM, the “apparent KD of MS2 coat protein” value [1] was 27.4 nM and the “apparent KD of MS2 coat protein” value [2] was 26 nM.
For “AAGACAUGAGGAUCACCCAUGUGGAGGGAUACCAGCCUGUGUGUGGGCCCUUGGCAGCUUAAAUUUAAUUUAAUUAAAUAAAUUU [Same State - Theophylline A]”, the “apparent KD of MS2 coat protein” value (input ligand: arginine 13.2 mM) was 27.6 nM, the “apparent KD of MS2 coat protein” value [1] was 41.6 nM and the “apparent KD of MS2 coat protein” value [2] was 34.9 nM.
In the case of “AAGACGGUCGGAAGGAGCGGUACAUGAGGAUCACCCAUGUACUCCUGGGCAUCCGUAGUGUGCCAGGUAGGUCGCCGAUUGCGGG [XArg-B14]”, the “apparent KD of MS2 coat protein” value (input ligand: arginine 13.2 mM) is reported as 12.8 nM, the “apparent KD of MS2 coat protein” value (input ligand: none) is reported as 12.8 nM and the “apparent KD of MS2 coat protein” value [1] is reported as 22.9 nM. The “apparent KD of MS2 coat protein” value [3] was 16.6 nM and the “apparent KD of MS2 coat protein” value [2] was 15.3 nM.
For “AAGCCCAGGACGGCCGCCACUGUAAAAUGGUGGUUCGCCUGUAAGAACAUGAGGAUCACCCAUGUCAGGACCGGGUCCACGAGUU [theeternabot_exclusion_MS2_Trp_B_46]”, the “apparent KD of MS2 coat protein” value (input ligand: arginine 13.2 mM) was 17.1 nM, the “apparent KD of MS2 coat protein” value [1] was 23.8 nM and the “apparent KD of MS2 coat protein” value [3] was 15.8 nM.
For “AAGCUGCCAAGAAGGUGAUCCAAAUGUGAUACCAGCUAGGAAACUAGCCCUUGGCAGCACAUGAGGAUCACCCAUGUAAUAAUAA [(T)'-(M)'-(T1)-(T2)-(M1)-(M2)_Design1_2/19/17]”, the “apparent KD of MS2 coat protein” value (input ligand: arginine 13.2 mM) was 37.7 nM, the “apparent KD of MS2 coat protein” value [1] was 191 nM and the “apparent KD of MS2 coat protein” value [2] was 48.3 nM.
In the case of “AAGCUUCGCAUAGGAAAACUAUGUGAAGCUCGAGGACCGGUACGGCCGCCACUCGUCCUCAACAUGAGGAUCACCCAUGUAAUAA [Mat - Exclusion - Trytophan A - D2]”, the “apparent KD of MS2 coat protein” value (input ligand: arginine 13.2 mM) is reported as 20.7 nM, the “apparent KD of MS2 coat protein” value [1] is reported as 28.6 nM and the “apparent KD of MS2 coat protein” value [3] is reported as 25.9 nM.
In the case of “AAGGCACGAGACAUGAGGAUCACCCAUGUUCGAGGACCGGUACGGCCGCCACUCGGUGGACUCAUGGUAAAGCCGGUGAGCCAAA [AK 1.1 SS Trypt (A)]”, the “apparent KD of MS2 coat protein” value (input ligand: arginine 13.2 mM) is reported as 18 nM, the “apparent KD of MS2 coat protein” value [1] is reported as 25.2 nM and the “apparent KD of MS2 coat protein” value [3] is reported as 22.5 nM.
For “AAGUAAACAUGAGCAAAGCUCAUGUGCGAAGGAGCGGCGGAAACGCCAGGUAGGUCGCGCACAUGAGCAUCAGCCAUGUGUGUCA [Omei Arginine B SS A v1]”, the “apparent KD of MS2 coat protein” value (input ligand: arginine 13.2 mM) was 11.2 nM, the “apparent KD of MS2 coat protein” value (input ligand: none) was 37.9 nM and the “apparent KD of MS2 coat protein” value [1] was 89.8 nM. The “apparent KD of MS2 coat protein” value [3] was 58.9 nM and the “apparent KD of MS2 coat protein” value [2] was 52.9 nM.
With “AAUAAACAUGAGGAUCACCCAUGUAGGGUGCGAGGACCGGUACGGCCGCCACUCGGGUGAAAACAUGAGGAUCACCCAUGUAAAA [Mat - Exclusion - Trytophan A - D23]” the “apparent KD of MS2 coat protein” value (input ligand: arginine 13.2 mM) was 61.1 nM, the “apparent KD of MS2 coat protein” value [1] was 185 nM and the “apparent KD of MS2 coat protein” value [3] was 220 nM.
With “AAUAAACAUGAGGAUCACCCAUGUUGUUGACGAGGACCGGUACGGCCGCCACUCGACAUGAGGAUCACCCAUGUUGUCACAUGAG [Same State Tryptophan A]” the “apparent KD of MS2 coat protein” value (input ligand: arginine 13.2 mM) was 73.1 nM, the “apparent KD of MS2 coat protein” value [1] was 190 nM and the “apparent KD of MS2 coat protein” value [3] was 256 nM.
